This note sets out measurements from publication PMC10397247.

What all share (test): two-hybrid library CCNG1;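 further: natural log of median RNA to DNA barcode read ratio; higher means stronger binding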
Experiment [1] deals with T1, 4H349-bA.
T1 chain: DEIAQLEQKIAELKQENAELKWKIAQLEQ

The target in experiment [2] is T2, 4H56-bA.
T2 chain: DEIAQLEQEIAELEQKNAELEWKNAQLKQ

In experiment [3] the target is T3, 4H3297-bA.
T3 chain: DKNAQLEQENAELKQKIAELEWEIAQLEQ

The target of experiment [4] is T4, 4H3364-bA.
T4 chain: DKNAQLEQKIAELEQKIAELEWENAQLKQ

Experiment [5] has as its target T5, 4H949-bA.
T5 chain: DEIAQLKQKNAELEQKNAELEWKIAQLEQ

The target of experiment [6] is T6, 4H796-bA.
T6 chain: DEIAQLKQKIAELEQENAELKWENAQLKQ

The target in experiment [7] is T7, 4H2859-bA.
T7 chain: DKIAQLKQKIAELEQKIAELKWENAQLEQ

The target in experiment [8] is T8, 4H2931-bA.
T8 chain: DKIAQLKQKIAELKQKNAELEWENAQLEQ

The target of experiment [9] is T9, 4H3041-bA.
T9 chain: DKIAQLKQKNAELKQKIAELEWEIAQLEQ

The target of experiment [10] is T10, 4H932-bA.
T10 chain: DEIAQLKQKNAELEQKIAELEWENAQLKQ

Experiment [11] concerns the target T11, 4H3381-bA.
T11 chain: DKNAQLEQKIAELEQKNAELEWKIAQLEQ

In experiment [12] the target is T12, 4H730-bA.
T12 chain: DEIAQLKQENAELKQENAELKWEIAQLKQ

Experiment [13] addresses T13, 4H454-bA.
T13 chain: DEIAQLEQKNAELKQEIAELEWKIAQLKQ

Experiment [14] has as its target T14, 4H568-bA.
T14 chain: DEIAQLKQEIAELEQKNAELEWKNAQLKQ

Experiment [15] deals with T15, 4H338-bA.
T15 chain: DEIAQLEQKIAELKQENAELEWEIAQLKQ

Experiment [16] concerns the target T16, 4H908-bA.
T16 chain: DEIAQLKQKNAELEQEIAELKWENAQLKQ

In experiment [17] the target is T17, 4H3843-bA.
T17 chain: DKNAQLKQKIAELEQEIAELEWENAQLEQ

For experiment [18], the target named is T18, 4H754-bA.
T18 chain: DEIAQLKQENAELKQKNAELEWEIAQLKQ

Experiment [19] concerns the target T19, 4H918-bA.
T19 chain: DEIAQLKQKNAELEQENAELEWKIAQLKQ

The target of experiment [20] is T20, 4H607-bA.
T20 chain: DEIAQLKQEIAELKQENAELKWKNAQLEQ

In experiment [21] the target is T21, 4H967-bA.
T21 chain: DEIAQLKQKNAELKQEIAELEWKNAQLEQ

Experiment [22] has as its target T22, 4H3782-bA.
T22 chain: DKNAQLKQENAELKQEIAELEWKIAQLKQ

Experiment [23] deals with T23, 4H3855-bA.
T23 chain: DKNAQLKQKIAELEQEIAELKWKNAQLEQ

The target in experiment [24] is T24, 4H953-bA.
T24 chain: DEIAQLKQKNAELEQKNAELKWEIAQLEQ

The target of experiment [25] is T25, 4H331-bA.
T25 chain: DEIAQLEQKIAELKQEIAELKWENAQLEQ

Experiment [26] deals with T26, 4H3427-bA.
T26 chain: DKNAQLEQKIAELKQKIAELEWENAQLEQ

The target of experiment [27] is T27, 4H4001-bA.
T27 chain: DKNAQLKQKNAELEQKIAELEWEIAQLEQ

The target of experiment [28] is T28, 4H72-bA.
T28 chain: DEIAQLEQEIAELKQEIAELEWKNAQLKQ

Experiment [29] addresses T29, 4H370-bA.
T29 chain: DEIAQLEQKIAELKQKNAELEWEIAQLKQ

Experiment [30] addresses T30, 4H717-bA.
T30 chain: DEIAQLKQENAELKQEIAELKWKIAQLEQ

Experiment [31] addresses T31, 4H3354-bA.
T31 chain: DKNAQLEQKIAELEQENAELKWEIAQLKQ

Experiment [32] has as its target T32, 4H462-bA.
T32 chain: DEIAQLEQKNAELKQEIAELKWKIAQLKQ
The note with it: mean of both orientations.

Experiment [33] addresses T33, 4H687-bA.
T33 chain: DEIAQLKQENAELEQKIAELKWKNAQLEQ

The target of experiment [34] is T34, 4H883-bA.
T34 chain: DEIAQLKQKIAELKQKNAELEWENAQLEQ

Experiment [35] has as its target T35, 4H797-bA.
T35 chain: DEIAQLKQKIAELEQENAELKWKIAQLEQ

Experiment [36] addresses T36, 4H3606-bA.
T36 chain: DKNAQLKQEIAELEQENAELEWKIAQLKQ

B1: 4H2859-bA (peptide)
chain: DKIAQLKQKIAELEQKIAELKWENAQLEQ
As to B1, the interaction score is -1.25 in experiment [1]; 0.529 in experiment [2]; -0.389 in [3]; 0.621 in experiment [4]; -1.6 in [5]; -0.855 in [6]. The interaction score in [7] is 0.951; in experiment [8], -0.145; in [9], 0.532; in [10], -0.912; in [11], -1.02; in [12] it was -1.15.

B2: 4H331-bA (peptide)
chain: DEIAQLEQKIAELKQEIAELKWENAQLEQ
Turning to B2, the interaction score in [13] is 0.885; in experiment [14], -0.11; in [15], -0.867; in [16], -1.83; in experiment [17], 0.72; in experiment [18] it was -0.893. For the same molecule, the interaction score in [19] is -0.884; in [20], -1.42; in experiment [21], -1.16; in experiment [22], -0.0209; in experiment [23], 0.317; in experiment [24] it was -1.28. The interaction score in [25] was -0.244; in [26] it was 0.677; in experiment [27], 0.0797; in [28], 1.23; in experiment [29] it was -0.724; in experiment [30] it was -1.06. The interaction score was -0.749 in experiment [31]; -0.426 in [32]; -0.899 in experiment [33]; -0.483 in experiment [34]; -0.644 in experiment [35]; -0.929 in [36].
